In the assay the target is microtubule (in vitro reconstituted, taxol-stabilised). The experiment in a line: cell-based or functional assay.

Here are results for one substance from patent US11214624.

With “kinesin (positive control motor protein in the gliding assay)”, the % of gliding microtubules (n = 50), ATP turned out to be 89.2%; the Maximum gliding speed, ATP came to 0.27 µm/min; the Mean gliding speed, ATP is 0.17 µm/min.
